B1: Caenorhabditis elegans manganese superoxide dismutase MnSOD-3 (enzyme)
chain: MKHTLPDLPFDYADLEPVISHEIMQLHHQKHHATYVNNLNQIEEKLHEAVSKGNLKEAIALQPALKFNGGGHINHSIFWTNLAKDGGEPSKELMDTIKRDFGSLDNLQKRLSDITIAVQGSGWGWLGYCKKDKILKIATCANQDPLEGMVPLFGIDVWEHAYYLQYKNVRPDYVHAIWKIANWKNISERFANARQ
notes: N-terminal methionine of the expression construct, retained in the purified protein by mass spectrometry; Superoxide dismutase [Mn]; Expressed without a histidine tag; Cloning is as in Hunter et al., 1997
B2: Caenorhabditis elegans manganese superoxide dismutase MnSOD-2 (enzyme)
chain: MKHSLPDLPYDYADLEPVISHEIMQLHHQKHHATYVNNLNQIEEKLHEAVSKGNVKEAIALQPALKFNGGGHINHSIFWTNLAKDGGEPSAELLTAIKSDFGSLDNLQKQLSASTVAVQGSGWGWLGYCPKGKILKVATCANQDPLEATTGLVPLFGIDVWEHAYYLQYKNVRPDYVNAIWKIANWKNVSERFAKAQQ
notes: as for B1

Molecular target: the molecule itself
Test: SEC; gel-filtration chromatography of the pure proteins; Sephacryl S-200, 10 mM Tris-HCl pH 8.0, 0.15 M NaCl, 0.8 ml/min; results not shown

Protein	stoichiometry N
B1	4
B2	4
